Experimental data from publication PMC8257661.

B1: Junin virus (JUNV) Z protein (natural protein)
chain: MGNCNGASKSNQPDSSRVTQPAAEFRRVAHSSLYGRYNCKCCWFADTNLITCNDHYLCLRCHQVMLRNSDLCNICWKPLPTTITVPVEPTAPPP

What follows are molecules tested against Junin virus (JUNV) L protein (Junin virus (JUNV)) (assay: MST; […] (20–[…]); […]; 50 mM HEPES pH 7.8, 500 mM NaCl, 1 mM TCEP; […]).

Row | Molecule | Kd [nM]
1 | Z (AA 18–47) peptide of JUNV Z protein | 863
2 | Z (AA 48–78) peptide of JUNV Z protein | 1150
3 | B1 | 393
